Source: patent US7528106B2, “Compositions and methods for treatment of neovascular diseases” (The Scripps Research Institute, priority 2004, dated 2009)

Test system: deep retinal vascular network formation in neonatal Balb/C mice
Assay: Neonatal mouse retinal angiogenesis model
Format: in vivo
Conditions: for % of eyes with 0-10% inhibition of deep vascular layer / % of eyes with 10-25% inhibition of deep vascular layer / % of eyes with 25-50% inhibition of deep vascular layer / % of eyes with 50-75% inhibition of deep vascular layer / % of eyes with 75-100% inhibition of deep vascular layer / % of eyes with 100% inhibition of deep vascular layer / % of eyes with >95% inhibition of deep vascular layer: intravitreal P4, read P12
Source text: Description of the Model. Immediately after birth (postnatal day zero; “P0”), retinal vasculature is virtually absent in the mouse. By four weeks after birth (P28) the retina has attained an adult pattern of retinal vessels coincident with the onset of vision. Physiological neovascularization of the retina occurs during this period via a stereotypical, biphasic developmental pattern of angiogenesis. During the primary phase of retinal vascular development, spoke-like peripapillary vessels grow radially from the central retinal artery and vein, becoming progressively interconnected by a capillary plexus that forms between them. This “inner retinal plexus” grows in area, volume and complexity, centrifugally, as a monolayer within the nerve fiber layer during the first seven to ten days following birth.
The second phase of retinal vessel formation begins between postnatal days 7 (P7) and 10 (P10) when collateral branches sprout from capillaries of the superficial plexus and penetrate into the retina where their tips branch and anastamose laterally to form a planar “deep vascular plexus”. While the deep vascular plexus is in place by P14, it undergoes extensive remodeling from P14 to P21. It is of interest to note that the formation of these vascular networks in the neonatal mouse are strikingly similar to the events occurring in the third trimester human fetus.
Advantages and Quantification of the Model. The reproducibility of the murine retinal development process and its easy accessibility in neonatal animals provide an opportunity to assess the efficacy of antiangiogenic compounds in a physiologically relevant model of angiogenesis. Additional advantages of the neonatal mouse model are the ability to qualitatively and quantitatively evaluate the angiostatic effect of putative antagonists of angiogenesis. Angiostatic activity was evaluated based upon the degree of angiogenesis in the deep, outer retinal vascular layer (secondary layer) that develops between P8 and P12. The appearance of the inner blood vessel network (primary layer) was evaluated for normal development and signs of toxicity.
Preparation of Compositions. Peptidomimetic integrin signaling inhibitor Compound (1) is solubilized in PBS at a concentration of about 20 mg/ml in PBS (1× concentration). T2-TrpRS is solubilized in PBS at a concentration of about 0.5 mg/ml (1× concentration). VEGF aptamer (pegaptanib sodium; Compound (2)) is solubilized in PBS at a concentration of about 2 mg/ml (1× concentration) to achieve an injection of approximately 1 μg/eye at 1× concentration. For all combination assays the compounds were prepared at 2 or 3 times the 1× concentration of each material and then combined to produce a final solution containing each individual compound at the same concentration as was used alone (e.g., 1×, 0.5×, 0.25× or 0.1×, as the case may be). For all assays, a single injection of 0.5 μl of PBS solutions of the drugs was administered intravitreally regardless of the number of compounds being injected. As used herein, the term “0.1×” refers to one tenth of the 1× concentration of a given material, “0.25×” refers to one quarter of the 1× concentration of a given material, “0.5×” refers to one half of the 1× concentration of a given material, and so forth for similar designations.
An in vivo angiogenesis assay in the neonatal mouse (Balb/C, The Jackson Laboratory, Bar Harbor, Me.) was used to evaluate the angiostatic activity of integrin signaling inhibitor Compound (1), T2-TrpRS, and VEGF aptamer Compound (2). Intravitreous injection and retina isolation was performed with a dissecting microscope (SMZ 645, Nikon, Japan). […] The samples (0.5 μl) were injected with a Hamilton syringe fitted with a 32-gauge needle (Hamilton Company, Reno, Nev.). The injection was made between the equator and the corneal limbus. During injection, the location of the needle tip was monitored by direct visualization to determine that it was in the vitreal cavity. […]

[1] = Ex 2, 0.1× of each (1×: T2-TrpRS 0.5, Comp. (2) 2 mg/ml)
[2] = Ex 3, 1× of each (T2-TrpRS 0.5, Comp. (2) 2 mg/ml)
[3] = Ex 6, 1× of each (T2-TrpRS 0.5, Comp. (2) 2 mg/ml)
[4] = Ex 7, 1× (T2-TrpRS 0.5, Comp. (2) 2 mg/ml)
[5] = Ex 9, 1× of each (Comp. (1) 20, Comp. (2) 2, T2-TrpRS 0.5 mg/ml)

B1: T2-TrpRS: 43 kDa angiostatic T2 fragment of human tryptophanyl-tRNA synthetase, SEQ ID NO: 1 (protein)
chain: MSAKGIDYDKLIVRFGSSKIDKELINRIERATGQRPHHFLRRGIFFSHRDMNQVLDAYENKKPFYLYTGRGPSSEAMHVGHLIPFIFTKWLQDVFNVPLVIQMTDDEKYLWKDLTLDQAYSYAVENAKDIIACGFDINKTFIFSDLDYMGMSSGFYKNVVKIQKHVTFNQVKGIFGFTDSDCIGKISFPAIQAAPSFSNSFPQIFRDRTDIQCLIPCAIDQDPYFRMTRDVAPRIGYPKPALLHSTFFPALQGAQTKMSASDPNSSIFLTDTAKQIKTKVNKHAFSGGRDTIEEHRQFGGNCDVDVSFMYLTFFLEDDDKLEQIRKDYTSGAMLTGELKKALIEVLQPLIAEHQARRKEVTDEIVKEFMTPRKLSFDFQ
modifications: homo sapiens
0.1× concentrations (1 μg/eye integrin antagonist, 0.2 μg/eye VEGF aptamer, 0.025 μg/eye T2-TrpRS)
  inhibition of neovascularization: negligible
[1]
  % of eyes with 0-10% inhibition of deep vascular layer: 50%
  % of eyes with 10-25% inhibition of deep vascular layer: 37.5%
  % of eyes with 25-50% inhibition of deep vascular layer: 12.5%
  % of eyes with 50-75% inhibition of deep vascular layer: 0%
  % of eyes with 75-100% inhibition of deep vascular layer: 0%
  % of eyes with 100% inhibition of deep vascular layer: 0%
  % of eyes with >95% inhibition of deep vascular layer: 0%
[2]
  % of eyes with 0-10% inhibition of deep vascular layer: 12.5%
  % of eyes with 10-25% inhibition of deep vascular layer: 12.5%
  % of eyes with 25-50% inhibition of deep vascular layer: 0%
  % of eyes with 50-75% inhibition of deep vascular layer: 12.5%
  % of eyes with 75-100% inhibition of deep vascular layer: 62.5%
  % of eyes with 100% inhibition of deep vascular layer: 12.5%
  % of eyes with >95% inhibition of deep vascular layer: 12.5%
Ex 4, 1× (0.5 mg/ml)
  % of eyes with 0-10% inhibition of deep vascular layer: 12.5%
  % of eyes with 10-25% inhibition of deep vascular layer: 37.5%
  % of eyes with 25-50% inhibition of deep vascular layer: 12.5%
  % of eyes with 50-75% inhibition of deep vascular layer: 12.5%
  % of eyes with 75-100% inhibition of deep vascular layer: 25%
  % of eyes with 100% inhibition of deep vascular layer: 0%
  % of eyes with >95% inhibition of deep vascular layer: 0%
Ex 5, 1× (0.5 mg/ml)
  % of eyes with 0-10% inhibition of deep vascular layer: 33.3%
  % of eyes with 10-25% inhibition of deep vascular layer: 16.7%
  % of eyes with 25-50% inhibition of deep vascular layer: 33.3%
  % of eyes with 50-75% inhibition of deep vascular layer: 0%
  % of eyes with 75-100% inhibition of deep vascular layer: 16.7%
  % of eyes with 100% inhibition of deep vascular layer: 0%
  % of eyes with >95% inhibition of deep vascular layer: 16.7%
[3]
  % of eyes with 0-10% inhibition of deep vascular layer: 50%
  % of eyes with 10-25% inhibition of deep vascular layer: 25%
  % of eyes with 25-50% inhibition of deep vascular layer: 12.5%
  % of eyes with 50-75% inhibition of deep vascular layer: 12.5%
  % of eyes with 75-100% inhibition of deep vascular layer: 0%
  % of eyes with 100% inhibition of deep vascular layer: 0%
  % of eyes with >95% inhibition of deep vascular layer: 0%
[4]
  % of eyes with 0-10% inhibition of deep vascular layer: 25%
  % of eyes with 10-25% inhibition of deep vascular layer: 12.5%
  % of eyes with 25-50% inhibition of deep vascular layer: 12.5%
  % of eyes with 50-75% inhibition of deep vascular layer: 0%
  % of eyes with 75-100% inhibition of deep vascular layer: 50%
  % of eyes with 100% inhibition of deep vascular layer: 0%
  % of eyes with >95% inhibition of deep vascular layer: 12.5%
Ex 8, 1× (0.5 mg/ml)
  % of eyes with 0-10% inhibition of deep vascular layer: 30%
  % of eyes with 10-25% inhibition of deep vascular layer: 30%
  % of eyes with 25-50% inhibition of deep vascular layer: 20%
  % of eyes with 50-75% inhibition of deep vascular layer: 10%
  % of eyes with 75-100% inhibition of deep vascular layer: 10%
  % of eyes with 100% inhibition of deep vascular layer: 0%
  % of eyes with >95% inhibition of deep vascular layer: 0%
[5]
  % of eyes with 0-10% inhibition of deep vascular layer: 12.5%
  % of eyes with 10-25% inhibition of deep vascular layer: 0%
  % of eyes with 25-50% inhibition of deep vascular layer: 25%
  % of eyes with 50-75% inhibition of deep vascular layer: 12.5%
  % of eyes with 75-100% inhibition of deep vascular layer: 50%
  % of eyes with 100% inhibition of deep vascular layer: 0%
  % of eyes with >95% inhibition of deep vascular layer: 12.5%
Ex 10, 0.1× (1×=0.5 mg/ml)
  % of eyes with 0-10% inhibition of deep vascular layer: 75%
  % of eyes with 10-25% inhibition of deep vascular layer: 25%
  % of eyes with 25-50% inhibition of deep vascular layer: 0%
  % of eyes with 50-75% inhibition of deep vascular layer: 0%
  % of eyes with 75-100% inhibition of deep vascular layer: 0%
Ex 10, 0.3× (1×=0.5 mg/ml)
  % of eyes with 0-10% inhibition of deep vascular layer: 33.3%
  % of eyes with 10-25% inhibition of deep vascular layer: 16.7%
  % of eyes with 25-50% inhibition of deep vascular layer: 8.3%
  % of eyes with 50-75% inhibition of deep vascular layer: 16.7%
